In FireProtDB (doi:10.1021/bi060038+):

Settings: pH 7, CD, sodium phosphate 10 mM, reversible: Yes, whole UniProt chain shown; for denaturant m value / unfolding free energy: 25 °C; for Tm / unfolding enthalpy (van 't Hoff): Thermal
[1] = Bacillus subtilis (strain 168), GdnHCl
[2] = Bacillus subtilis (strain 168), Urea
[3] = Oceanobacillus iheyensis (strain DSM 14371 / CIP 107618 / JCM 11309 / KCTC 3954 / HTE831), GdnHCl
[4] = Oceanobacillus iheyensis (strain DSM 14371 / CIP 107618 / JCM 11309 / KCTC 3954 / HTE831), Urea
[5] = Oceanobacillus iheyensis (strain DSM 14371 / CIP 107618 / JCM 11309 / KCTC 3954 / HTE831)
[6] = Halalkalibacterium halodurans (strain ATCC BAA-125 / DSM 18197 / FERM 7344 / JCM 9153 / C-125), GdnHCl
[7] = Halalkalibacterium halodurans (strain ATCC BAA-125 / DSM 18197 / FERM 7344 / JCM 9153 / C-125), Urea
[8] = Halalkalibacterium halodurans (strain ATCC BAA-125 / DSM 18197 / FERM 7344 / JCM 9153 / C-125)
[9] = Geobacillus stearothermophilus, GdnHCl
[10] = Geobacillus stearothermophilus, Urea
[11] = Streptococcus thermophilus, GdnHCl
[12] = Streptococcus thermophilus, Urea

B1: Phosphocarrier protein HPr wild type, P08877 (protein)
chain: MAQKTFKVTADSGIHARPATVLVQTASKYDADVNLEYNGKTVNLKSIMGVMSLGIAKGAEITISASGADENDALNALEETMKSEGLGE
In the case of B1, the denaturant m value [1] is reported as 3.28 kcal/mol/M, the unfolding free energy [1] is reported as 3.4 kcal/mol and the denaturant m value [2] is reported as 1.08 kcal/mol/M. The unfolding free energy [2] was 5 kcal/mol, the Tm (Bacillus subtilis (strain 168)) was 73 °C and the “unfolding enthalpy (van 't Hoff)” value (Bacillus subtilis (strain 168)) was 77 kcal/mol.

B2: Phosphocarrier protein HPr wild type, Q8ENY1 (protein)
chain: MKSQTFTITAETGVHARPATLLVNKAGQFDSEIEVSYKGKQVNLKSIMGVMSLGIPKGAEIEVSADGKDEEDALNGVAEVIKEHLGE
Work on B2 yielded a denaturant m value [3] of 2.56 kcal/mol/M, an unfolding free energy [3] of 1.4 kcal/mol and a denaturant m value [4] of 1.27 kcal/mol/M. For the same protein, the unfolding free energy [4] was 3.4 kcal/mol, the Tm [5] was 58 °C and the “unfolding enthalpy (van 't Hoff)” value [5] was 59 kcal/mol.

B3: Phosphocarrier protein HPr wild type, Q9K8D2 (protein)
chain: MAEKTFTITAETGIHARPATQLVNKAGQYSSEITLEYKGKAVNLKSIMGVMSLGVGKGAQVTIKAEGSDEAEALKGIEEVIKEGLGE
Protein B3 has a denaturant m value [6] of 2.36 kcal/mol/M, an unfolding free energy [6] of 5.3 kcal/mol and a denaturant m value [7] of 0.9 kcal/mol/M. The unfolding free energy [7] was 6.8 kcal/mol, the Tm [8] was 82.3 °C and the “unfolding enthalpy (van 't Hoff)” value [8] was 87 kcal/mol.

B4: Phosphocarrier protein HPr wild type, P42013 (protein)
chain: MAEKTFKVVSDSGIHARPATILVQTASKFNSEIQLEYNGKTVNLKSIMGVMSLGIPKGATIKITAEGADAAEAMAALTDTLAKEGLAE
B4 gave a denaturant m value [9] of 2.43 kcal/mol/M, an unfolding free energy [9] of 6.7 kcal/mol and a denaturant m value [10] of 0.98 kcal/mol/M. For the same protein, the unfolding free energy [10] was 8.2 kcal/mol, the Tm (Geobacillus stearothermophilus) was 88.3 °C and the “unfolding enthalpy (van 't Hoff)” value (Geobacillus stearothermophilus) was 99 kcal/mol.

B5: Phosphocarrier protein HPr wild type, Q8VP89 (protein)
chain: MASKDFHIVAETGIHARPATLLVQTASKFASDITLEYKGKAVNLKSIMGVMSLGVGQGADVTISAEGPDADDAIAAIAETMTKEGLA
B5 gave a denaturant m value [11] of 2.75 kcal/mol/M, an unfolding free energy [11] of 5.4 kcal/mol and a denaturant m value [12] of 0.86 kcal/mol/M. It also gave an unfolding free energy [12] of 6.3 kcal/mol.
